Literature values, collected in paper PMC5683942.

Tests used:
[1] = biological target: Histone H4 K5buK8bu (Homo sapiens) (UniProt P62805)
[2] = biological target: Histone H2A K5ac (Homo sapiens) (UniProt P0C0S8)
[3] = biological target: Histone H3 K14ac (Homo sapiens) (UniProt P68431)
[4] = biological target: Histone H4 K12ac (Homo sapiens) (UniProt P62805)
[5] = biological target: Histone H4 K8ac (Homo sapiens) (UniProt P62805)
[6] = biological target: Histone H4 K5ac (Homo sapiens) (UniProt P62805)

BRD9 bromodomain (from UniProt Q9H8M2)
Kd [1]: 60 µM

BRPF1 bromodomain (from UniProt P55201)
Kd [2]: 48.5 µM
Kd [3]: 626 µM
Kd [4]: 86.5 µM
Kd [5]: 697 µM
Kd [6]: 1240 µM
